Target: T1, S100A9, P06702
T1 chain: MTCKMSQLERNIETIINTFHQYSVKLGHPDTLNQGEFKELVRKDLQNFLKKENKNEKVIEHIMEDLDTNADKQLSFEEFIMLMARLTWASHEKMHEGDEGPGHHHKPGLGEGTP
Assay: SDS-PAGE
Conditions: remark: other sources report otherwise

B1: S100A9, P06702 1-114 (natural protein)
chain: T1 chain
In the case of B1, the stoichiometry N is reported as 2.
